# Test results as given in US11524977 (JIANGSU UNIVERSITY, dated 2022).
# Target: Angiotensin converting enzyme (ACE EC 3.4.15.1)
# Assay: cell-based or functional assay
row,IC50 of ACE inhibitory activity,Binder
1,14.2 µg/mL,LQPP [Leu-Gln-Pro-Pro (LQPP)]
2,71.1 µg/mL,LSLP [Leu-Ser-Leu-Pro (LSLP)]
3,19.1 µg/mL,APY [Ala-Pro-Tyr (APY)]
